Usually stoichiometry N stands for a count of units in the complex or per binding partner.

The text below walks through data of paper doi:10.1101/2024.12.12.628194.

Assay [1] concerns the target TaqCad1 (CARF-fused adenosine deaminase Cad1 from Thermoanaerobaculum aquaticum), wild type (Thermoanaerobaculum aquaticum). Description: cryo-EM structure.
In assay [2] the target is TaqCad1 R408D/A411E variant (Thermoanaerobaculum aquaticum). In words: SEC.

“TaqCad1 (CARF-fused adenosine deaminase Cad1 from Thermoanaerobaculum aquaticum), wild type (enzyme)” gave a stoichiometry N in assay [1] of 6.
TaqCad1 R408D/A411E variant (enzyme) registered a stoichiometry N in assay [2] of 2.
